Measurements taken from patent US20240209041A1 (SRI INTERNATIONAL, published 2024).
Primed or numbered codes have the meaning given here. [ ]: non-standard residue; d: D form. PEG11′ = not defined here

Target: purified EphA2 (UniProt P29317 25-534, limits assumed)
Assay: binding to purified EphA2; method not stated

purified EphA2, sequence (P29317 25-534 limits assumed): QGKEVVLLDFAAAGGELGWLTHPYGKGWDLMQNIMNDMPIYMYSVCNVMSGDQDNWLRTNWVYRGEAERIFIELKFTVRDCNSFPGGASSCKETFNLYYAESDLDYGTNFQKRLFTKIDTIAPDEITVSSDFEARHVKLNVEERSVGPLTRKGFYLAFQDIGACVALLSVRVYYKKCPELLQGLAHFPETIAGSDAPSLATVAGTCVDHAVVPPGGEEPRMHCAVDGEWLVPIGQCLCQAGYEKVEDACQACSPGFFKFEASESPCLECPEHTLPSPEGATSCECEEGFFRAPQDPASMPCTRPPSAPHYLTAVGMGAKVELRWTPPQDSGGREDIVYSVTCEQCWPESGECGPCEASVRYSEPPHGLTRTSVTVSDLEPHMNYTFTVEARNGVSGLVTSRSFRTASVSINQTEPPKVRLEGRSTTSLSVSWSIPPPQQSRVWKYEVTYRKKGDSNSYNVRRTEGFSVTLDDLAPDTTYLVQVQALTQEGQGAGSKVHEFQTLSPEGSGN

B1: MGS_H1299.2 V4 (peptide)
peptide: Ac-YAAWPASGAWT[PEG11′]C-NH2
notes: Optimized MGS peptide from phage display (parent H1299.2); also called MGS_1299.2 V4
In the case of B1, the Kd is reported as 3.2 nM.
